Results published in patent CN115477698A (UNIV CHONGQING MEDICAL; FENG YULIN, dated 2022).

B1: 单抗16-CQTS061 (antibody, V domains shown)
VH: EVQLVESGGGLVQPGGSLRLSCAASGFTVISNYMSWVRQAPGKGLEWVSVIYRGGSTYFADSVKGRFTISRDNSKNTLYLQMNSLRAEDTAVYYCARLASDGSGSYLDYFDYWGQGTLVTVSS
VL: QSVLTQPPSVSGAPGQRVTISCTGSSSNIGADYDVHWYQQFPGTAPKLLIYGNSNRPSGVPDRFSGSKSGTSASLAITGLQAEDEADYYCQSYDSSLSGSWVFGGGTKLTVL
B2: 单抗18-CQTS063 (antibody, V domains shown)
VH: QVQLVQSGAEVKKPGSSVKVSCKASGGTFSSYAISWVRQAPGQGLEWMGGIIPIFGTANYAQKFQGRVTITADESTSTAYMELSSLRSEDTAVYYCATDGGGGSYYYAHYYYGMDVWGQGTTVTVSS
VL: QTVVTQEPSFSVSPGGTVTLTCGLSSGSVPTSYFPSWYQQTPGQAPRTLIYGTNTRSSGVPDRFSGSILGNKAALTITGAQADDESDYYCVLYMGSGIVVFGGGTKLTVL
B3: 单抗14-CQTS058 (antibody, V domains shown)
VH: EVQLVESGGGLVQPGRSLRLSCAASGFTFDDYAMHWVRQAPGKGLEWVSGISWSSGSIVYADSVKGRFTVSRDNAKNSLYLQMNSLRVEDTAFYYCAKDMVAGPHYYGMDVWGQGTTVTVSS
VL: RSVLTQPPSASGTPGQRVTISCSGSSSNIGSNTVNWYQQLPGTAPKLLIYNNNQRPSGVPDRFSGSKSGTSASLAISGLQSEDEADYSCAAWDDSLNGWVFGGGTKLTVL
B4: 单抗13-CQTS057 (antibody, V domains shown)
VH: QVTLRESGPALVKPTQTLTLTCTFSGFSLSTSGMCVSWIRQPPGKALEWLARIDWDDDKYYSTSLRTRLTISKDTSKNLVVLTMTNMDPVDTATYYCALGRAGTMDYWGQGTLVTVSS
VL: DIQMTQSPSSLSASVGDRVTITCRASQSIRSYLNWYQQKPGKAPKVLIYAASSLQSGVPSRFSGSGSGTDFTLTISSLQPGDFATYYCQQSYSPPYTFGQGTKLEIK
B5: 单抗12-CQTS056 (antibody, V domains shown)
VH: EVQLVQSGAEVKKPGESLKISCQGSGFSFSNYWIGWVRQMPGKGLEWMGIIYPDDSDTRYSPSFQGQVTISADKSISTAFLQWSSLKASDTAMYYCATRTGWTNDAFDIWGQGTMVTVSS
VL: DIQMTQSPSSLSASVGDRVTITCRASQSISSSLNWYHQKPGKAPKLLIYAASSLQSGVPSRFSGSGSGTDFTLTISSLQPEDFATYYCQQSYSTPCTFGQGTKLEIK
B6: 单抗19-CQTS064 (antibody, V domains shown)
VH: EVQLVQSGAEVKKPGESLKISCEGSGYSFISYWIGWVRQMPGKGLEWMGIIYPGDSDTRYSPSFQGQVTISADRSISTAYLQWSSLKASDTAMYYCVRSDGDYVIGHDYWGQGTLVTVSS
VL: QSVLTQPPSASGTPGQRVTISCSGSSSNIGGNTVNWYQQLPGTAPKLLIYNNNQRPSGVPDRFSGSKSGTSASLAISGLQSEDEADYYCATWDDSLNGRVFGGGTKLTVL
B7: 单抗15-CQTS059 (antibody, V domains shown)
VH: EVQLVQSGAEVKKPGESLKISCKASGYRFTNYWTVWVRQMPGKGLEWMGIIYPGDSEIRYSPPFQGQVTISADKSISTAYLQWSSLKASDTAMYYCARHPSNFYDSGGDYYAMDVWGQGTPVTVSS
VL: QSALTQPASVSGSPGQSITISCTGTSSNVGNYDLVSWYQQHPGKAPKLMIYEVNKRPSGVSDRFSGSKSGNTASLTISGLQAEDEADFYCCSYAGSSSWVFGGGTKVTVL
B8: 单抗20-CQTS065 (antibody, V domains shown)
VH: EMQLVESGGGLVQPGGSLRLSCAASGFTFSTYEMNWVRQAPGKGLEWVSYISSSTNSIYYAGSVQGRFTISRGNAKNSLYLQMNSLRAEDTAVYYCARGRDDYGDYRGGDFDYWGQGTLVTVSS
VL: QIVLTQSPATLSLSPGERATLSCRASQSVTTYLAWYQQKPGQAPRLLIYDASHRATGIPARFSGSGSGTDFTLTISSLEPEDFAVYYCQQRSNWPPITFGPGTKVEIK
B9: 单抗11-CQTS055 (antibody, V domains shown)
VH: EVQLVESGGGLVQPGGSLRLSCAASGFTFSNYDMHWVRQGTGKGLEWVSAIGTAGDTYYPGSVKGRFTISRENAKNSLYLQMNSLRAGDTALYYCARVGYYGSGSYPLYWYFDLWGRGTLVTVSS
VL: DIQMTPSPSSLSASVGDRVTITCRASQSISIYLNWYQQKPGKAPKLLIYAASNLQSGVPSRFSGSGSGTEFTLTISSLQPEDFATYFCQQSYSAPPWTFGQGTRVEIR
notes: also called 实施例1的新冠病毒RBD特异性单克隆抗体
B10: 单抗17-CQTS062 (antibody, V domains shown)
VH: EVQLVESGGGLVQPGRSLRLSCAASGFTFDDYAMHWVRQAPGKGLEWVSGISWNSDSIGYADSVKGRFTISRDNAKNSLYLQMNSLRAEDTALYYCAKDLSSGWDLFDYWGQGTLVTVSS
VL: SYVLTQPPSVSVAPGKTARITCGGNNIGSKSVHWYQQKPGQAPVLVIYYDSDRPSGIPERFSGSNSGNTATLSISRVEAGDEAGYYCQVWDTSGDPLVFGGGTKLTVL

biological target: SARS-COV-2RBD (SARS-CoV-2, UniProt P0DTC2 319-541); test: ELISA, RBD coated at 2 μg/mL, 293T transfection supernatant, anti-human IgG-ALP detection

**Q.** Does B1 bind?
**A.** binds

**Q.** Does B2 bind?
**A.** binds

**Q.** Does B3 bind?
**A.** binds

**Q.** Does B4 bind?
**A.** binds

**Q.** Does B5 bind?
**A.** binds

**Q.** Does B6 bind?
**A.** binds

**Q.** Does B7 bind?
**A.** binds

**Q.** Does B8 bind?
**A.** binds

**Q.** Does B9 bind?
**A.** binds

**Q.** Does B10 bind?
**A.** binds
